Reference: PMC11098746 (2024)

Biological target: Circumsporozoite protein (CSP) (Plasmodium falciparum (isolate 3D7), UniProt Q7K740)
Assay: AVEXIS screen signal:noise (double-corrected)

Sequence of Circumsporozoite protein (CSP) (Q7K740 19-374): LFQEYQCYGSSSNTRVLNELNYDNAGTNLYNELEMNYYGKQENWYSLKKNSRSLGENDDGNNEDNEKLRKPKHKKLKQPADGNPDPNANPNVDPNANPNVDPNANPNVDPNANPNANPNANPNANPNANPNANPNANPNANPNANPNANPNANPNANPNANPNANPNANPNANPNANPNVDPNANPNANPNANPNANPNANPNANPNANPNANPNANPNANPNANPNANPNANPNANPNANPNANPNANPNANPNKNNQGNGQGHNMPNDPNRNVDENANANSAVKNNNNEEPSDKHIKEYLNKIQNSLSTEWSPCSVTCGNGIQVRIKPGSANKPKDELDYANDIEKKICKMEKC

Binder | binding score
ADP353 (protein, bait human Fc-tagged dimer) MAARWRFWCVSVTMVVALLIVCDVPSASAQRKKEMVLSEKVSQLMEWTNKRPVIRMNGDKFRRLVKAPPRNYSVIVMFTALQLHRQCVVCKQADEEFQILANSWRYSSAFTNRIFFAMVDFDEGSDVFQMLNMNSAPTFINFPAKGKPKRGDTYELQVRGFSAEQIARWIADRTDVNIRVIRPP | 1.49
ADP104 (protein, bait human Fc-tagged dimer) MEPPDAPAQARGAPRLLLLAVLLAAHPDAQAEVRLSVPPLVEVMRGKSVILDCTPTGTHDHYMLEWFLTDRSGARPRLASAEMQGSELQVTMHDTRGRSPPYQLDSQGRLVLAEAQVGDERDYVCVVRAGAAGTAEATARLNVFAKPEATEVSPNKGTLSVMEDSAQEIATCNSRNGNPAPKITWYRNGQRLEVPVEMNPEGYMTSRTVREASGLLSLTSTLYLRLRKDDRDASFHCAAHYSLPEGRHGRLDSPTFHLTLHYPTEHVQFWVGSPSTPAGWVREGDTVQLLCRGDGSPSPEYTLFRLQDEQEEVLNVNLEGNLTLEGVTRGQSGTYGCRVEDYDAADDVQLSKTLELRVAYLDPLELSEGKVLSLPLNSSAVVNCSVHGLPTPALRWTKDSTPLGDGPMLSLSSITFDSNGTYVCEASLPTVPVLSRTQNFTLLVQGSPELKTAEIEPKADGSWREGDEVTLICSARGHPDPKLSWSQLGGSPAEPIPGRQGWVSSSLTLKVTSALSRDGISCEASNPHGNKRHVFHFGTVSPQTSQAG | 1.08
ADP133 (protein, bait human Fc-tagged dimer) MAPLRPLLILALLAWVALADQESCKGRCTEGFNVDKKCQCDELCSYYQSCCTDYTAECKPQVTRGDVFTMPEDEYTVYDDGEEKNNATVHEQVGGPSLTSDLQAQSKGNPEQTPVLKPEEEAPAPEVGASKPEGIDSRPETLHPGRPQPPAEEELCSGKPFDAFTDLKNGSLFAFRGQYCYELDEKAVRPGYPKLIRDVWGIEGPIDAAFTRINCQGKTYLFKGSQYWRFEDGVLDPDYPRNISDGFDGIPDNVDAALALPAHSYSGRERVYFFKGKQYWEYQFQHQPSQEECEGSSLSAVFEHFAMMQRDSWEDIFELLFWGRTSAGTRQPQFISRDWHGVPGQVDAAMAGRIYISGMAPRPSLAKKQRFRHRNRKGYRSQRGHSRGRNQNSRRPSRATWLSLFSSEESNLGANNYDDYRMDWLVPATCEPIQSVFFFSGDKYYRVNLRTRRVDTVDPPYPRSIAQYWLGCPAPGHL | 1.13
ADP262 (protein, bait human Fc-tagged dimer) QNSQLQEELRGLRETFSNFTASTEAQVKGLSTQGGNVGRKMKSLESQLEKQQKDLSEDHSSLLLHVKQFVSDLRSLSCQMAALQGNGSERTCCPVNWVEHERSCYWFSRSGKAWADADNYCRLEDAHLVVVTSWEEQKFVQHHIGPVNTWMGLHDQNGPWKWVDGTDYETGFKNWRPEQPDDWYGHGLGGGEDCAHFTDDGRWNDDVCQRPYRWVCETELDKASQEPPLL | 0.921
ADP118 (protein, bait human Fc-tagged dimer) MARAAALLPSRSPPTPLLWPLLLLLLLETGAQDVRVQVLPEVRGQLGGTVELPCHLLPPVPGLYISLVTWQRPDAPANHQNVAAFHPKMGPSFPSPKPGSERLSFVSAKQSTGQDTEAELQDATLALHGLTVEDEGNYTCEFATFPKGSVRGMTWLRVIAKPKNQAEAQKVTFSQDPTTVALCISKEGRPPARISWLSSLDWEAKETQVSGTLAGTVTVTSRFTLVPSGRADGVTVTCKVEHESFEEPALIPVTLSVRYPPEVSISGYDDNWYLGRTDATLSCDVRSNPEPTGYDWSTTSGTFPTSAVAQGSQLVIHAVDSLFNTTFVCTVTNAVGMGRAEQVIFVRETPNTAGAGAT | 0.743
ADP147 (protein, bait human Fc-tagged dimer) MAACGRVRRMFRLSAALHLLLLFAAGAEKLPGQGVHSQGQGPGANFVSFVGQAGGGGPAGQQLPQLPQSSQLQQQQQQQQQQQQPQPPQPPFPAGGPPARRGGAGAGGGWKLAEEESCREDVTRVCPKHTWSNNLAVLECLQDVREPENEISSDCNHLLWNYKLNLTTDPKFESVAREVCKSTITEIKECADEPVGKGYMVSCLVDHRGNITEYQCHQYITKMTAIIFSDYRLICGFMDDCKNDINILKCGSIRLGEKDAHSQGEVVSCLEKGLVKEAEEREPKIQVSELCKKAILRVAELSSDDFHLDRHLYFACRDDRERFCENTQAGEGRVYKCLFNHKFEESMSEKCREALTTRQKLIAQDYKVSYSLAKSCKSDLKKYRCNVENLPRSREARLSYLLMCLESAVHRGRQVSSECQGEMLDYRRMLMEDFSLSPEIILSCRGEIEHHCSGLHRKGRTLHCLMKVVRGEKGNLGMNCQQALQTLIQETDPGADYRIDRALNEACESVIQTACKHIRSGDPMILSCLMEHLYTEKMVEDCEHRLLELQYFISRDWKLDPVLYRKCQGDASRLCHTHGWNETSEFMPQGAVFSCLYRHAYRTEEQGRRLSRECRAEVQRILHQRAMDVKLDPALQDKCLIDLGKWCSEKTETGQELECLQDHLDDLVVECRDIVGNLTELESEDIQIEALLMRACEPIIQNFCHDVADNQIDSGDLMECLIQNKHQKDMNEKCAIGVTHFQLVQMKDFRFSYKFKMACKEDVLKLCPNIKKKVDVVICLSTTVRNDTLQEAKEHRVSLKCRRQLRVEELEMTEDIRLEPDLYEACKSDIKNFCSAVQYGNAQIIECLKENKKQLSTRCHQKVFKLQETEMMDPELDYTLMRVCKQMIKRFCPEADSKTMLQCLKQNKNSELMDPKCKQMITKRQITQNTDYRLNPMLRKACKADIPKFCHGILTKAKDDSELEGQVISCLKLRYADQRLSSDCEDQIRIIIQESALDYRLDPQLQLHCSDEISSLCAEEAAAQEQTGQVEECLKVNLLKIKTELCKKEVLNMLKESKADIFVDPVLHTACALDIKHHCAAITPGRGRQMSCLMEALEDKRVRLQPECKKRLNDRIEMWSYAAKVAPADGFSDLAMQVMTSPS | 0.989
ADP154 (protein, bait human Fc-tagged dimer) MAGKWLLCMLLVLGTAIVEAHDGHDDDVIDIEDDLDDVIEEVEDSKPDTTAPPSSPKVTYKAPVPTGEVYFADSFDRGTLSGWILSKAKKDDTDDEIAKYDGKWEVEEMKESKLPGDKGLVLMSRAKHHAISAKLNKPFLFDTKPLIVQYEVNFQNGIECGGAYVKLLSKTPELNLDQFHDKTPYTIMFGPDKCGEDYKLHFIFRHKNPKTGIYEEKHAKRPDADLKTYFTDKKTHLYTLILNPDNSFEILVDQSVVNSGNLLNDMTPPVNPSREIEDPEDRKPEDWDERPKIPDPEAVKPDDWDEDAPAKIPDEEATKPEGWLDDEPEYVPDPDAEKPEDWDEDMDGEWEAPQIANPRCESAPGCGVWQRPVIDNPNYKGKWKPPMIDNPSYQGIWKPRKIPNPDFFEDLEPFRMTPFSAIGLELWSMTSDIFFDNFIICADRRIVDDWANDGWGLKKAADGAAEPGVVGQMIEAAEERP | 0.77
ADP358 (protein, bait human Fc-tagged dimer) MARSPGRAYALLLLLICFNVGSGLHLQVLSTRNENKLLPKHPHLVRQKRAWITAPVALREGEDLSKKNPIAKIHSDLAEERGLKITYKYTGKGITEPPFGIFVFNKDTGELNVTSILDREETPFFLLTGYALDARGNNVEKPLELRIKVLDINDNEPVFTQDVFVGSVEELSAAHTLVMKINATDADEPNTLNSKISYRIVSLEPAYPPVFYLNKDTGEIYTTSVTLDREEHSSYTLTVEARDGNGEVTDKPVKQAQVQIRILDVNDNIPVVENKVLEGMVEENQVNVEVTRIKVFDADEIGSDNWLANFTFASGNEGGYFHIETDAQTNEGIVTLIKEVDYEEMKNLDFSVIVANKAAFHKSIRSKYKPTPIPIKVKVKNVKEGIHFKSSVISIYVSESMDRSSKGQIIGNFQAFDEDTGLPAHARYVKLEDRDNWISVDSVTSEIKLAKLPDFESRYVQNGTYTVKIVAISEDYPRKTITGTVLINVEDINDNCPTLIEPVQTICHDAEYVNVTAEDLDGHPNSGPFSFSVIDKPPGMAEKWKIARQESTSVLLQQSEKKLGRSEIQFLISDNQGFSCPEKQVLTLTVCECLHGSGCREAQHDSYVGLGP | 1.38
ADP117 (protein, bait human Fc-tagged dimer) MAAPGSARRPLLLLLLLLLLGLMHCASAAMFMVKNGNGTACIMANFSAAFSVNYDTKSGPKNMTFDLPSDATVVLNRSSCGKENTSDPSLVIAFGRGHTLTLNFTRNATRYSVQLMSFVYNLSDTHLFPNASSKEIKTVESITDIRADIDKKYRCVSGTQVHMNNVTVTLHDATIQAYLSNSSFSRGETRCEQDRPSPTTAPPAPPSPSPSPVPKSPSVDKYNVSGTNGTCLLASMGLQLNLTYERKDNTTVTRLLNINPNKTSASGSCGAHLVTLELHSEGTTVLLFQFGMNASSSRFFLQGIQLNTILPDARDPAFKAANGSLRALQATVGNSYKCNAEEHVRVTKAFSVNIFKVWVQAFKVEGGQFGSVEECLLDENSMLIP | 0.992
ADP128 (protein, bait human Fc-tagged dimer) MAAEGWIWRWGWGRRCLGRPGLLGPGPGPTTPLFLLLLLGSVTADITDGNSEHLKREHSLIKPYQGVGSSSMPLWDFQGSTMLTSQYVRLTPDERSKEGSIWNHQPCFLKDWEMHVHFKVHGTGKKNLHGDGIALWYTRDRLVPGPVFGSKDNFHGLAIFLDTYPNDETTERVFPYISVMVNNGSLSYDHSKDGRWTELAGCTADFRNRDHDTFLAVRYSRGRLTVMTDLEDKNEWKNCIDITGVRLPTGYYFGASAGTGDLSDNHDIISMKLFQLMVEHTPDEESIDWTKIEPSVNFLKSPKDNVDDPTGNFRSGPLT | 1.03
ADP343 (protein, bait human Fc-tagged dimer) MALASAAPGSIFCKQLLFSLLVLTLLCDACQKVYLRVPSHLQAETLVGKVNLEECLKSASLIRSSDPAFRILEDGSIYTTHDLILSSERKSFSIFLSDGQRREQQEIKVVLSARENKSPKKRHTKDTALKRSKRRWAPIPASLMENSLGPFPQHVQQIQSDAAQNYTIFYSISGPGVDKEPFNLFYIEKDTGDIFCTRSIDREKYEQFALYGYATTADGYAPEYPLPLIIKIEDDNDNAPYFEHRVTIFTVPENCRSGTSVGKVTATDLDEPDTLHTRLKYKILQQIPDHPKHFSIHPDTGVITTTTPFLDREKCDTYQLIMEVRDMGGQPFGLFNTGTITISLEDENDNPPSFTETSYVTEVEENRIDVEILRMKVQDQDLPNTPHSKAVYKILQGNENGNFIISTDPNTNEGVLCVVKPLNYEVNRQVILQVGVINEAQFSKAASSQTPTMCTTTVTVKIIDSDEGPECHPPVKVIQSQDGFPAGQELLGYKALDPEISSGEGLRYQKLGDEDNWFEINQHTGDLRTLKVLDRESKFVKNNQYNISVVAVDAVGRSCTGTLVVHLDDYNDHAPQIDKEVTICQNNEDFAVLKPVDPDGPENGPPFQFFLDNSASKNWNIEEKDGKTAILRQRQNLDYNYYSVPIQIKDRHGLVATHMLTVRVCDCSTPSECRMKDKSTRDVRPNVILG | 0.814
ADP302 (protein, bait human Fc-tagged dimer) MAAWKSWTALRLCATVVVLDMVVCKGFVEDLDESFKENRNDDIWLVDFYAPWCGHCKKLEPIWNEVGLEMKSIGSPVKVGKMDATSYSSIASEFGVRGYPTIKLLKGDLAYNYRGPRTKDDIIEFAHRVSGALIRPLPSQQMFEHMQKRHRVFFVYVGGESPLKEKYIDAASELIVYTYFFSASEEVVPEYVTLKEMPAVLVFKDETYFVYDEYEDGDLSSWINRERFQNYLAMDGFLLYELGDTGKLVALAVIDEKNTSVEHTRLKSIIQEVARDYRDLFHRDFQFGHMDGNDYINTLLMDELTVPTVVVLNTSNQQYFLLDRQIKNVEDMVQFINNILDGTVEAQGGDSILQRLKRIVFDAKSTIVSIFKSSP | 1.19
